{"source": "patent US20080182978A1", "about": "“ANTI-NGF ANTIBODIES AND METHODS USING SAME” (RINAT NEUROSCIENCE CORP, priority 2002, published 2008)", "molecules": {"B1": {"name": "E3 (Fab): Fab fragment of humanized anti-NGF antibody E3 (antibody, V domains shown)", "VH": "QVQLQESGPGLVKPSETLSLTCTVSGFSLIGYDLNWIRQPPGKGLEWIGIIWGDGTTDYNSAVKSRVTISKDTSKNQFSLKLSSVTAADTAVYYCARGGYWYATSYYFDYWGQGTLVTVS", "VL": "DIQMTQSPSSLSASVGDRVTITCRASQSISNNLNWYQQKPGKAPKLLIYYTSRFHSGVPSRFSGSGSGTDFTFTISSLQPEDIATYYCQQEHTLPYTFGQGTKLEIKRT"}, "B2": {"name": "3C: H19-L129 with CDR-L3 S91E, K92R and CDR-H3 Y101W, G103A (antibody, V domains shown)", "VH": "B1 VH", "VL": "B1 VL with H92R"}}, "key": {"[1]": {"target": "T1, human NGF (Homo sapiens, UniProt P01138)", "T1 sequence (P01138 122-241)": "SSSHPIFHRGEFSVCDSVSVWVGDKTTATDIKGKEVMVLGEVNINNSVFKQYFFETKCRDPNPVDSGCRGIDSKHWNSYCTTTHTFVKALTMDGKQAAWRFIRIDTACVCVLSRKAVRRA", "assay": "BIAcore affinity determination assay (kon, koff, KD of purified Fabs)", "format": "binding", "settings": "Fab on immobilized human NGF", "description": "Affinities of anti-NGF Fabs and monoclonal antibodies were determined using the BIAcore300™ surface plasmon resonance (SPR) system (BIAcore, INC, Piscaway N.J.). CM5 chips were activated with N-ethyl-N′-(3-dimethylaminopropyl)-carbodimide hydrochloride (EDC) and N-hydroxysuccinimide (NHS) according to the supplier's instructions. Human NGF was diluted into 10 mM sodium acetate pH 4.0 and injected over the activated chip at a concentration of 0.005 mg/mL. Using variable flow time across the individual chip channels, two ranges of antigen density were achieved: 100-200 response units (RU) for detailed kinetic studies and 500-600 RU for screening assays. The chip was blocked with ethanolamine. […] HBS-EP buffer (0.01M HEPES, pH 7.4, 0.15 NaCl, 3 mM EDTA, 0.005% Surfactant […]) was used as running buffer for all the BIAcore assays.\nSerial dilutions (0.1-10× estimated KD) of purified Fab samples were injected for 1 min at 100 μL/min and dissociation times of up to 2 h were allowed. The concentrations of the Fab proteins were determined by ELISA and/or SDS-PAGE electrophoresis using as a standard a Fab of known concentration (as determined by amino acid analysis). Kinetic association rates (kon) and dissociation rates (koff) were obtained simultaneously by fitting the data to a 1:1 Langmuir binding model (Karlsson, R. Roos, H. Fagerstam, L. Petersson, B. (1994). Methods Enzymology 6. 99-110) using the BIAevaluation program. Equilibrium dissociation constant (KD) values were calculated as koff/kon.\nThe binding affinities to human NGF of Fabs E3 and 3C were measured using BIAcore analysis according to the manufacturer's instructions and as described above, except that 100 RU NGF was used on chip to prevent a rebinding effect. Briefly, several concentrations of antibodies (Fabs) were injected for 2 minutes onto a CM5 chip with 100 RU of immobilized human NGF on it, and permitted to dissociate for 1800 seconds. Mouse antibody 911 (Fab) was analyzed as a control. Data was analyzed using BIAevaluation software following the manufacturer's instructions. E3 bound human NGF with a KD of approximately 0.07 nM (and with a kon of about 6.0e5 M-1s-1, and a koff of about 4.2e-5s-1)."}, "[2]": {"target": "interaction of human NGF with trkA (Homo sapiens, UniProt P01138)", "sequence (P01138 122-241)": "as above", "assay": "BIAcore: blocking of NGF binding to trkA on chip", "settings": "2.5 nM human NGF preincubated one hour; Fab concentration equal to NGF concentration", "description": "(§1) Antibody E3 (interchangeably termed 3E) was selected for further analysis based on the high binding affinity. To test the ability of E3 to prevent the interaction of NGF with the NGF receptors trkA and p75, 2.5 nM of human NGF was premixed and incubated for one hour with 0 to 50 nM of antibody E3 (Fab). After the incubation, samples were injected at 10 ul/minute on a BIAcore CM5 chip containing 260 RU of p75 (channel 2) and 600 RU of trkA (channel 3), and percent binding was determined."}, "[3]": {"target": "interaction of human NGF with p75 (Homo sapiens, UniProt P01138)", "sequence (P01138 122-241)": "as above", "assay": "BIAcore: blocking of NGF binding to p75 on chip", "settings": "2.5 nM human NGF preincubated one hour; Fab concentration equal to NGF concentration", "description": "as §1"}, "[4]": {"target": "T1, human NGF", "assay": "Mouse E17/18 trigeminal neuron survival assay, NGF", "format": "cell-based", "settings": "saturating NGF (400 pM); 48 hours", "description": "(§2) The ability of antibody E3 to specifically block NGF activity was evaluated by measurement of the capacity of the antibody to inhibit survival of mouse E17/18 trigeminal neurons in vitro in the presence of saturating concentrations of NGF, the NGF-related neurotrophin NT3, or the NGF-unrelated neurotrophic factor, macrophage stimulating protein (MSP). The survival of mouse E17/18 trigeminal neurons is a sensitive assay to evaluate the NGF-blocking activity of anti-NGF antagonist antibodies because NGF is required to support survival of these neurons at higher concentrations than the level of NGF required to support survival of E13.5 TG neurons).\n(§3) The survival assay was conducted as follows: time mated pregnant Swiss Webster female mice were euthanised by CO2 inhalation. The uterine horns were removed and the embryos (at embryonic day 17 or 18) were extracted and decapitated. The trigeminal and nodose ganglia were dissected and cleaned. The ganglia were then trypsinised, mechanically dissociated and plated at a density of 100-300 cells per well in defined, serum-free medium in 4-well plates (Greiner) coated with poly-L-ornithine and laminin.\n(§4) E17/18 trigeminal neurons were grown either without added neurotrophic factors (negative control) or in the presence of saturating concentrations of human NGF (400 pM and 15 pM) (positive control); NT3 (400 pM); or MSP (600 pM). […]"}, "[5]": {"target": "T2, NT3 (Homo sapiens, UniProt P20783)", "T2 sequence (P20783 139-257)": "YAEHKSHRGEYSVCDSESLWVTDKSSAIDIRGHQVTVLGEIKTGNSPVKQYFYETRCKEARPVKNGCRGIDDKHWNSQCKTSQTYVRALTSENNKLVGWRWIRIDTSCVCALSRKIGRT", "assay": "Mouse E17/18 trigeminal neuron survival assay, NT3", "format": "cell-based", "settings": "saturating NT3; antibody up to 200 nM; 48 hours", "description": "as §2, §3, §4"}, "[6]": {"target": "macrophage stimulating protein (MSP) (Homo sapiens, UniProt P26927)", "sequence (P26927 19-711, species assumed)": "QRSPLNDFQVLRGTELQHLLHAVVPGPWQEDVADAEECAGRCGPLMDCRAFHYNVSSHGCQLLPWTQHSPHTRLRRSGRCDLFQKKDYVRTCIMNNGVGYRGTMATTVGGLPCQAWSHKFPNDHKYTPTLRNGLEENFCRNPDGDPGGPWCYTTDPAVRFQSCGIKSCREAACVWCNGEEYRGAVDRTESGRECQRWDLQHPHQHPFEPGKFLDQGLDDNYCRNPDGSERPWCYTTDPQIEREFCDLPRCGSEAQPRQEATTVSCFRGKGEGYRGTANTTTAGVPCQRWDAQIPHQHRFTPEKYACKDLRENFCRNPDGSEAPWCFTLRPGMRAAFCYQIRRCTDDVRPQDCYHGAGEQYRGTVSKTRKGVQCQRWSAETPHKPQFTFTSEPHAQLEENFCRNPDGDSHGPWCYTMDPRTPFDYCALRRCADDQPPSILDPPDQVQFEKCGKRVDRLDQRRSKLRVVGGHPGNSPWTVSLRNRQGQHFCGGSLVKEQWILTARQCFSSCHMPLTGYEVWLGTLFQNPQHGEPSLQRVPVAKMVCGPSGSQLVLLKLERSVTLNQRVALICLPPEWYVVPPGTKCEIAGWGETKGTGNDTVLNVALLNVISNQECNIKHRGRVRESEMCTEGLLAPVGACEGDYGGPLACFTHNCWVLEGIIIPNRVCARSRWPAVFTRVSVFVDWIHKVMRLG", "assay": "Mouse E17/18 trigeminal neuron survival assay, MSP", "format": "cell-based", "settings": "MSP 600 pM; antibody up to 200 nM; 48 hours", "description": "as §2, §3, §4"}, "[7]": {"target": "T3, BDNF (Homo sapiens, UniProt P23560)", "T3 sequence (P23560 129-247)": "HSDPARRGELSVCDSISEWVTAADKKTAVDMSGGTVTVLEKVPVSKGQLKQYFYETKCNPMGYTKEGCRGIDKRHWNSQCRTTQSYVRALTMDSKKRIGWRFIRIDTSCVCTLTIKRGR", "assay": "Mouse E17 nodose neuron survival assay, BDNF", "format": "cell-based", "settings": "BDNF 400 pM; antibody up to 200 nM; 48 hours", "description": "(§5) The ability of antibody E3 to specifically block NGF activity was also evaluated by measurement of the capacity of the antibody to inhibit survival of mouse nodose E17 neurons in the presence of saturating concentrations of BDNF or NT4/5. Survival of nodose neurons is supported by BDNF or NT4/5; therefore, survival of these neurons is a sensitive assay to evaluate the BDNF or NT4/5-blocking ability of the anti-NGF antagonist antibody.\nas §3\n(§6) E17 nodose neurons were grown either in the absence of added neurotrophic factors (negative control), or with saturating concentrations of BDNF (400 pM) (positive control) or NT4/5 (400 pM) or NGF unrelated growth factor […]. High concentrations of neurotrophins were used, as the goal of this experiment was to test specificity of the antibodies. […]"}, "[8]": {"target": "T4, NT4/5 (Homo sapiens, UniProt P34130)", "T4 sequence (P34130 81-210)": "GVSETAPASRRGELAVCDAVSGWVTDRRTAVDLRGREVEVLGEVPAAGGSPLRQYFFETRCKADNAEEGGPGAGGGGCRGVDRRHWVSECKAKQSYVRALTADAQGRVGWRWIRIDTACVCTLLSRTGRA", "assay": "Mouse E17 nodose neuron survival assay, NT4/5", "format": "cell-based", "settings": "NT4/5 400 pM; antibody up to 200 nM; 48 hours", "description": "as §5, §3, §6"}, "[9]": {"target": "LIF (Homo sapiens, UniProt P15018)", "sequence (P15018 23-202, species assumed)": "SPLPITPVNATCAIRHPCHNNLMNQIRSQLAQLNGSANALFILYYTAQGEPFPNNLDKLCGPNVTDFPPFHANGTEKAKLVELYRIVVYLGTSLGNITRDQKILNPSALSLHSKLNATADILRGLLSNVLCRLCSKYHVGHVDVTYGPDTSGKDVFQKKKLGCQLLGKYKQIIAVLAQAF", "assay": "Mouse E17 nodose neuron survival assay, LIF", "format": "cell-based", "settings": "LIF 2.5 nM; antibody up to 200 nM; 48 hours", "description": "as §5, §3, §6"}, "[10]": {"target": "T1, human NGF", "assay": "BIAcore screening assay of Fab library clones (koff)", "format": "binding", "settings": "Table 8: CDR L3 H3 combination mutations, H19-L129 template (H1H2L1L2 matured)", "in_short": "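Fab library clones expressed in E. coli (1 mM IPTG, 5 h, 30° C), lysed by freeze-thaw in HBS-EP; lysates injected at 50 μl/min for 2 min over CM5-immobilised human NGF (500-600 RU). Single-exponential koff fitted from 10-15 min dissociation; Fab presence checked via anti-penta-His channel.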"}, "[11]": {"target": "T1, human NGF", "assay": "Mouse E13.5 trigeminal neuron survival assay, human NGF", "format": "cell-based", "settings": "1.5 or 15 pM human NGF", "description": "(§7) The ability of Fab E3 or full antibody E3 to block NGF activity was evaluated by measurement of the capacity of the antibody to inhibit NGF-dependent survival of mouse E13.5 trigeminal neurons in vitro. The trigeminal ganglion is comprised of cutaneous sensory neurons that innervate the facial region. The survival of mouse E13.5 trigeminal neurons is a sensitive assay to evaluate the NGF-blocking activity of anti-NGF antagonist antibodies because NGF is required to support survival of these neurons. For example, at saturating concentrations of NGF, the survival is close to 100% by 48 hours in culture. By contrast, less than 5% of the neurons survive by 48 hours in absence of NGF.\n(§8) The survival assay was conducted as follows: time-mated pregnant Swiss Webster female mice were euthanized by CO2 inhalation. The uterine horns were removed and the embryos at embryonic stage E13.5 were extracted and decapitated. The trigeminal ganglia were dissected using electrolytically sharpened tungsten needles. The ganglia were then trypsinized, mechanically dissociated and plated at a density of 200-300 cells per well in defined, serum-free medium in 96-well plates coated with poly-L-ornithine and laminin.\nAfter 48 hours in culture, the cells were subjected to an automated immunocytochemistry protocol performed on a Biomek FX liquid handling workstation (Beckman Coulter) as follows: fixation using 4% formaldehyde, 5% sucrose, and PBS; permeabilization using 0.3% Triton X-100 in PBS); blocking of unspecific binding sites using 5% normal goat serum, 0.11% BSA in PBS; and sequential incubation with a primary and secondary antibodies to detect neurons. The primary antibody was rabbit polyclonal antibody against the protein gene product […] (PGP9.5, Chemicon), an established neuronal phenotypic marker. The secondary antibody was Alexa Fluor 488 goat anti-rabbit (Molecular Probes), together with the nuclear dye Hoechst 33342 (Molecular Probes) to label the nuclei of all the cells present in the culture. […]"}, "[12]": {"target": "rat NGF (Rattus norvegicus, UniProt P25427)", "sequence (P25427 122-241)": "as the sequence (P01138 122-241) above, with S3T, I6V, R9M, M37T, D60A, D65E, M92T, G94D, V117A, A120G counted along it", "assay": "Mouse E13.5 trigeminal neuron survival assay, rat NGF", "format": "cell-based", "settings": "1.5 or 15 pM rat NGF", "description": "as §7\nas §8, with “laminin. […]” for “laminin.”"}}, "note": "Where a chain is given by its changes, count along the chain named. In names and notes the source's numbering stands.", "data": [{"molecule": "B1", "values": [{"measurement": "koff", "setting": "[1]", "value": "<4e-05", "unit": "s⁻¹"}, {"measurement": "kon", "setting": "[1]", "value": 600000, "unit": "M⁻¹ s⁻¹"}, {"measurement": "NGF binding to trkA (percent maximum RU)", "setting": "[2]", "value": "no NGF binding was observed"}, {"measurement": "NGF binding to p75 (percent maximum RU)", "setting": "[3]", "value": "no NGF binding was observed"}, {"measurement": "survival of E17/18 trigeminal neurons promoted by NGF", "setting": "[4]", "value": "totally blocked"}, {"measurement": "survival of E17/18 trigeminal neurons promoted by NT3", "setting": "[5]", "value": "did not inhibit"}, {"measurement": "survival of E17/18 trigeminal neurons promoted by MSP", "setting": "[6]", "value": "did not inhibit"}, {"measurement": "survival of E17 nodose neurons promoted by BDNF", "setting": "[7]", "value": "did not inhibit"}, {"measurement": "survival of E17 nodose neurons promoted by NT4/5", "setting": "[8]", "value": "did not inhibit"}, {"measurement": "survival of E17 nodose neurons promoted by LIF", "setting": "[9]", "value": "did not inhibit"}]}, {"molecule": "B2", "values": [{"measurement": "koff", "setting": "[1]", "value": "about 1.4E-5 s^−1"}, {"measurement": "koff", "setting": "[10]", "value": "1.4e-05", "unit": "s⁻¹"}, {"measurement": "blocking of human NGF-dependent trigeminal neuron survival", "setting": "[11]", "value": "strongly blocked"}, {"measurement": "blocking of rat NGF-dependent trigeminal neuron survival", "setting": "[12]", "value": "strongly blocked"}]}]}
